This data set has as its system Escherichia coli TOP10. As to the kind of experiment: shrunken log2 fold change of peptide-encoding DNA abundance (4.5 h post-induction vs induction); higher = less antimicrobial activity (less host growth inhibition). The conditions noted are these: time post-induction: 4.5 h; library: site-saturation at positions 5, 18, 19, 20.
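Further: peptides expressed intracellularly from a pBAD plasmid library in pooled LB shake-flask culture, induced with 0.3% L-arabinose, DNA abundance read by NGS, three biological replicates, DESeq2 with apeglm shrinkage.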

Turning to RRIRNRPPRLPRPRPRPTVLPRP, the “shrunken log2 fold change” value was -0.091.

As to RRIRQRPPRLPRPRPRPHSMPRP, the “shrunken log2 fold change” value was -0.438.

Turning to RRIRNRPPRLPRPRPRPVVLPRP, the “shrunken log2 fold change” value was -0.179. As for RRIRARPPRLPRPRPRPMWFPRP, the figure is 0.0716; as for RRIRHRPPRLPRPRPRPRKLPRP, -0.141; as for RRIRCRPPRLPRPRPRPLEYPRP, -0.0414. Next, RRIRERPPRLPRPRPRPDVAPRP: 0.087; RRIRKRPPRLPRPRPRPGTRPRP: 0.165; RRIRQRPPRLPRPRPRPKGYPRP: -0.00146. As for RRIRFRPPRLPRPRPRPVFYPRP, the “shrunken log2 fold change” value was -0.536. Next, RRIRARPPRLPRPRPRPNDYPRP: -0.471; RRIRVRPPRLPRPRPRPRLSPRP: 0.0321. As for RRIRNRPPRLPRPRPRPKYRPRP, the figure is -0.0413. As for RRIRFRPPRLPRPRPRPDSSPRP, the figure is -0.055. RRIRCRPPRLPRPRPRPHHPPRP: the “shrunken log2 fold change” value is -0.37. For the sequence RRIRARPPRLPRPRPRPVWYPRP, the “shrunken log2 fold change” value is -0.395. As for RRIRLRPPRLPRPRPRPNDPPRP, the figure is -0.213; as for RRIRIRPPRLPRPRPRPMVLPRP, -0.071.

For the sequence RRIRYRPPRLPRPRPRPVPMPRP, the “shrunken log2 fold change” value was -0.158. As for RRIRYRPPRLPRPRPRPHNSPRP, the figure is -0.753. Consider RRIRWRPPRLPRPRPRPRYKPRP, for which the “shrunken log2 fold change” value was -0.104. Next, RRIRWRPPRLPRPRPRPPFGPRP: 0.274; RRIRGRPPRLPRPRPRPNEYPRP: 0.249; RRIRRRPPRLPRPRPRPYVEPRP: -0.482. RRIRDRPPRLPRPRPRPGCPPRP: the “shrunken log2 fold change” value turned out to be 0.0445. Next, RRIRWRPPRLPRPRPRPKYPPRP: -0.582; RRIRVRPPRLPRPRPRPINRPRP: -0.239; RRIRMRPPRLPRPRPRPLTTPRP: 1.06. Next, RRIRIRPPRLPRPRPRPEEKPRP: 0.461; RRIRLRPPRLPRPRPRPISKPRP: -0.125; RRIRNRPPRLPRPRPRPWAYPRP: -0.0322. Take RRIRERPPRLPRPRPRPLINPRP: the “shrunken log2 fold change” value is -0.512. Next, RRIRCRPPRLPRPRPRPLVEPRP: 0.102. Next, RRIRDRPPRLPRPRPRPWHMPRP: -0.301; RRIRMRPPRLPRPRPRPYGFPRP: -0.00952; RRIRTRPPRLPRPRPRPHREPRP: -0.075. As to RRIRVRPPRLPRPRPRPKMKPRP, the “shrunken log2 fold change” value turned out to be 0.839.

For RRIRVRPPRLPRPRPRPMQGPRP, the “shrunken log2 fold change” value is -0.0882. In the case of RRIRWRPPRLPRPRPRPHVVPRP, the “shrunken log2 fold change” value came to 0.0851. Turning to RRIRQRPPRLPRPRPRPNDNPRP, the “shrunken log2 fold change” value is -0.577.

In the case of RRIRRRPPRLPRPRPRPYKAPRP, the “shrunken log2 fold change” value is -0.108. As for RRIRYRPPRLPRPRPRPIGMPRP, the figure is -0.265; as for RRIRPRPPRLPRPRPRPCMMPRP, -0.467; as for RRIRMRPPRLPRPRPRPQTCPRP, 0.0193.

Take RRIRKRPPRLPRPRPRPTTKPRP: the “shrunken log2 fold change” value was -0.0244.

Consider RRIRKRPPRLPRPRPRPEFPPRP, for which the “shrunken log2 fold change” value worked out at 0.0804. For RRIRNRPPRLPRPRPRPKWKPRP, the “shrunken log2 fold change” value was found to be 0.0263. In the case of RRIRSRPPRLPRPRPRPDDFPRP, the “shrunken log2 fold change” value is -0.151. As for RRIRQRPPRLPRPRPRPMHNPRP, the figure is -0.28.

As for RRIRKRPPRLPRPRPRPYYHPRP, the “shrunken log2 fold change” value was determined as 0.158.

Values taken from the supplement of paper PMC9112550, “Optimization of the antimicrobial peptide Bac7 by deep mutational scanning” (BMC Biology, 2022).
